Source: the supplement of paper PMC12855868

B1: library; numbered along this chain (parent)
chain: MAAAGGARLLRAASAVLGGPAGRWLHHAGSRAGSSGLLRNRGPGGSAEASRSLSVSARARSSSEDKITVHFINRDGETLTTKGKVGDSLLDVVVENNLDIDGFGACEGTLACSTCHLIFEDHIYEKLDAITDEENDMLDLAYGLTDRSRLGCQICLTKSMDNMTVRVPETVADARQSIDVGKTS

Variants of: B1
Assay: scaled log2 fold change in cell abundance, elesclomol vs control (0 = silent mean, 1 = nonsense mean) (scaled log2 ratio); higher = higher viability under elesclomol (loss of FDX1 cuproptosis function)
Conditions: glucose 10 mM
[1] = with ABC1 FDX1 KO, elesclomol 5 nM, 14 days
[2] = with HEK293T FDX1 KO, elesclomol 40 nM, 11 days
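Further: variant abundance is its share of total variant reads in each endpoint sample, from next-generation sequencing of the integrated ORF PCR-amplified out of genomic DNA.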

Variant	scaled log2 fold change [1]	scaled log2 fold change [2]
MAAAGGARLLRAASAVLGGPAGRWLHHAGSRAGSSGLLRNRGPGGSAEASRSLSVSARARSSSEDKITVHFINRDGETLTTKGKVGDSLLDVVVENNLDIDGFGACEGTLACSTCPLIFEDHIYEKLDAITDEENDMLDLAYGLTDRSRLGCQICLTKSMDNMTVRVPETVADARQSIDVGKTS [H116P]	0.152	0.891
MAAAGGARLLRAASAVLGGPAGRWLHHAGSRAGSSGLLRNRGPGGSAEASRSLSVSARARSSSEDKITVHFINRDGETLTTKGKVGDSLLDVVVENNLDIDGFGACEGTLACSTCRLIFEDHIYEKLDAITDEENDMLDLAYGLTDRSRLGCQICLTKSMDNMTVRVPETVADARQSIDVGKTS [H116R]	-0.042	0.647
MAAAGGARLLRAASAVLGGPAGRWLHHAGSRAGSSGLLRNRGPGGSAEASRSLSVSARARSSSEDKITVHFINRDGETLTTKGKVGDSLLDVVVENNLDIDGFGACEGTLACSTCTLIFEDHIYEKLDAITDEENDMLDLAYGLTDRSRLGCQICLTKSMDNMTVRVPETVADARQSIDVGKTS [H116T]	0.317	-0.824
MAAAGGARLLRAASAVLGGPAGRWLHHAGSRAGSSGLLRNRGPGGSAEASRSLSVSARARSSSEDKITVHFINRDGETLTTKGKVGDSLLDVVVENNLDIDGFGACEGTLACSTCVLIFEDHIYEKLDAITDEENDMLDLAYGLTDRSRLGCQICLTKSMDNMTVRVPETVADARQSIDVGKTS [H116V]	0.0823	-0.296
MAAAGGARLLRAASAVLGGPAGRWLHHAGSRAGSSGLLRNRGPGGSAEASRSLSVSARARSSSEDKITVHFINRDGETLTTKGKVGDSLLDVVVENNLDIDGFGACEGTLACSTCWLIFEDHIYEKLDAITDEENDMLDLAYGLTDRSRLGCQICLTKSMDNMTVRVPETVADARQSIDVGKTS [H116W]	-0.0982	0.125
MAAAGGARLLRAASAVLGGPAGRWLHHAGSRAGSSGLLRNRGPGGSAEASRSLSVSARARSSSEDKITVHFINRDGETLTTKGKVGDSLLDVVVENNLDIDGFGACEGTLACSTCQLIFEDHIYEKLDAITDEENDMLDLAYGLTDRSRLGCQICLTKSMDNMTVRVPETVADARQSIDVGKTS [H116Q]	-0.185	0.198
MAAAGGARLLRAASAVLGGPAGRWLHHAGSRAGSSGLLRNRGPGGSAEASRSLSVSARARSSSEDKITVHFINRDGETLTTKGKVGDSLLDVVVENNLDIDGFGACEGTLACSTCSLIFEDHIYEKLDAITDEENDMLDLAYGLTDRSRLGCQICLTKSMDNMTVRVPETVADARQSIDVGKTS [H116S]	-0.0363	0.435
MAAAGGARLLRAASAVLGGPAGRWLHHAGSRAGSSGLLRNRGPGGSAEASRSLSVSARARSSSEDKITVHFINRDGETLTTKGKVGDSLLDVVVENNLDIDGFGACEGTLACSTCYLIFEDHIYEKLDAITDEENDMLDLAYGLTDRSRLGCQICLTKSMDNMTVRVPETVADARQSIDVGKTS [H116Y]	0.484	1.02
MAAAGGARLLRAASAVLGGPAGRWLHHAGSRAGSSGLLRNRGPGGSAEASRSLSVSARARSSSEDKITVHFINRDGETLTTKGKVGDSLLDVVVENNLDIDGFGACEGTLACSTCHDIFEDHIYEKLDAITDEENDMLDLAYGLTDRSRLGCQICLTKSMDNMTVRVPETVADARQSIDVGKTS [L117D]	1.19	0.855
MAAAGGARLLRAASAVLGGPAGRWLHHAGSRAGSSGLLRNRGPGGSAEASRSLSVSARARSSSEDKITVHFINRDGETLTTKGKVGDSLLDVVVENNLDIDGFGACEGTLACSTCHGIFEDHIYEKLDAITDEENDMLDLAYGLTDRSRLGCQICLTKSMDNMTVRVPETVADARQSIDVGKTS [L117G]	0.483	0.224
MAAAGGARLLRAASAVLGGPAGRWLHHAGSRAGSSGLLRNRGPGGSAEASRSLSVSARARSSSEDKITVHFINRDGETLTTKGKVGDSLLDVVVENNLDIDGFGACEGTLACSTCHIIFEDHIYEKLDAITDEENDMLDLAYGLTDRSRLGCQICLTKSMDNMTVRVPETVADARQSIDVGKTS [L117I]	-0.11	-0.196
MAAAGGARLLRAASAVLGGPAGRWLHHAGSRAGSSGLLRNRGPGGSAEASRSLSVSARARSSSEDKITVHFINRDGETLTTKGKVGDSLLDVVVENNLDIDGFGACEGTLACSTCHAIFEDHIYEKLDAITDEENDMLDLAYGLTDRSRLGCQICLTKSMDNMTVRVPETVADARQSIDVGKTS [L117A]	0.00712	0.115
MAAAGGARLLRAASAVLGGPAGRWLHHAGSRAGSSGLLRNRGPGGSAEASRSLSVSARARSSSEDKITVHFINRDGETLTTKGKVGDSLLDVVVENNLDIDGFGACEGTLACSTCHFIFEDHIYEKLDAITDEENDMLDLAYGLTDRSRLGCQICLTKSMDNMTVRVPETVADARQSIDVGKTS [L117F]	0.176	0.206
MAAAGGARLLRAASAVLGGPAGRWLHHAGSRAGSSGLLRNRGPGGSAEASRSLSVSARARSSSEDKITVHFINRDGETLTTKGKVGDSLLDVVVENNLDIDGFGACEGTLACSTCHEIFEDHIYEKLDAITDEENDMLDLAYGLTDRSRLGCQICLTKSMDNMTVRVPETVADARQSIDVGKTS [L117E]	1.05	0.745
MAAAGGARLLRAASAVLGGPAGRWLHHAGSRAGSSGLLRNRGPGGSAEASRSLSVSARARSSSEDKITVHFINRDGETLTTKGKVGDSLLDVVVENNLDIDGFGACEGTLACSTCHCIFEDHIYEKLDAITDEENDMLDLAYGLTDRSRLGCQICLTKSMDNMTVRVPETVADARQSIDVGKTS [L117C]	0.0758	0.451
MAAAGGARLLRAASAVLGGPAGRWLHHAGSRAGSSGLLRNRGPGGSAEASRSLSVSARARSSSEDKITVHFINRDGETLTTKGKVGDSLLDVVVENNLDIDGFGACEGTLACSTCHHIFEDHIYEKLDAITDEENDMLDLAYGLTDRSRLGCQICLTKSMDNMTVRVPETVADARQSIDVGKTS [L117H]	1.03	1.35
